The record followed here is publication PMC12450071 (Cell reports, 2025).

This experiment has as its target JUNV GP1 (receptor-binding domain), subunit within the GPC on PV membranes (Junin mammarenavirus, strain MC2 …, UniProt P26313). Briefly: cryo-EM structure. The settings on record: one partner purified.

Sequence of JUNV GP1 (receptor-binding domain), subunit within the GPC on PV membranes (P26313 whole entry, looked up, the tested form may be a part): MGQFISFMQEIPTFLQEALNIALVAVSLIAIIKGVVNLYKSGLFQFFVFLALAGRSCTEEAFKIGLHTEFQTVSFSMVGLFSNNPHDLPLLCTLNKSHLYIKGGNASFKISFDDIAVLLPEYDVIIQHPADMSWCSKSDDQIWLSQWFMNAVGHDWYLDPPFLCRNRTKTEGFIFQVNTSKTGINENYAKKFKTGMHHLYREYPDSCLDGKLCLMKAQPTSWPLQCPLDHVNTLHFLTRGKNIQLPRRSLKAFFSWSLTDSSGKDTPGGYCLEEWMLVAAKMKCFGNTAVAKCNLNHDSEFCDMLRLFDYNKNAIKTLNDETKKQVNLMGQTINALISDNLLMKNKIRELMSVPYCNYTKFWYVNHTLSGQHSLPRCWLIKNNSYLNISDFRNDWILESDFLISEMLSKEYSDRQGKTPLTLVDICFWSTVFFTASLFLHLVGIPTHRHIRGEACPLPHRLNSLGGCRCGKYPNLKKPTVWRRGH

B1: GB03-BE08 (J199) Fab (Fab, V domains shown)
VH: VALVESGGGLVQPGGSLKLSCASGASFSNAGMSWVRQTPDRRLELVAAINRDGDITYHPDSVKGRFTISRDNAKNTLYLQMSSLKSEDTAMYYCAREDYYGLYFYVMDYWGQGTSVTVA
VL: QIVLTQSPAIMSASPGEKVTITCSASSIVSYMHWFQQKPGTSPKLWIYGTSNLASGVPARFSGSGSGTSYSLTISRMEAEDAATYYCQQRNSYPPTFGGGTKLEIK
notes: source: bought: BEI Resources (J199), ficin digested, dialyzed into TBS pH 8
As for B1, the binding result is listed as “binds”.

B2: GFP-fused Fab of the neutralizing antibody CR1-28 (Fab, V domains shown)
VH: QVQLVESGGGVVQPGRSLRLSCAASGFTFSSSAMHWVRQAPGKGLEWVAVIWSDGSNENYADSVKGRFTISRDNSKNTLYLQMSSLRAEDTAVYYCATDKTYVSGYTSTWYYFNYWGQGTLVTVSG
VL: DIQMTQSPSTLSASVGDRVTITCRASQSIDNWLAWYQQKPGKAPKLLIYTASRLESGVPSRFSGSGSGTEFTLTISSLQPDDFATYYCQHRTFGQGTKVEIK
notes: also called CR1–28Fab; GFP-fused CR1–28Fab; source: HEK293T, transfected, purified from culture media (Ni-NTA)
As for B2, the binding result is recorded as “binds”.
